These results are taken from article PMC12727526, “Carbon-monoxide-driven bioethanol production operates through a tungsten-dependent catalyst” (Nature Chemical Biology, 2025).

In series [1] the target is T1, CaAFOR (AOR1) (Clostridium autoethanogenum, UniProt A0ABM5NPY3).
T1 construct: gene CAETHG_0092
T1 sequence (A0ABM5NPY3 1-607): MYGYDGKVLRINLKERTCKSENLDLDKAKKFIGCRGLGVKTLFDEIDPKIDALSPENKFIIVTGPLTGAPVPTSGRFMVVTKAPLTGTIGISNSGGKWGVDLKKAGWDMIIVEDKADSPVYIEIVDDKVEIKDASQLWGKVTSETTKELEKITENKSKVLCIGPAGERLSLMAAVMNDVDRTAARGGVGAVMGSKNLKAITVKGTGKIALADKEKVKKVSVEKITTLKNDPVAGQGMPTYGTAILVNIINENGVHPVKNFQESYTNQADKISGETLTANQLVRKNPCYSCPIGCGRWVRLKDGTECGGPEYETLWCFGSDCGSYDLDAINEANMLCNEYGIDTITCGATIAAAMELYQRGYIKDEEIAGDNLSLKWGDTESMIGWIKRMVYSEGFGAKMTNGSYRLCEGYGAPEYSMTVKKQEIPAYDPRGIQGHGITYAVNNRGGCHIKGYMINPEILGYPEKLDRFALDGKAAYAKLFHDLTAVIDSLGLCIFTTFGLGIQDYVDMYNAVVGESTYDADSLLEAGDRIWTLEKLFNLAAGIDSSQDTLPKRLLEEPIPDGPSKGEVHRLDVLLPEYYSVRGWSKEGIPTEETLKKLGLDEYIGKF
As to conditions: pH 5.5 or 6.5, 37 °C; CO-driven, ferredoxin, CODH/ACS, S. cerevisiae ADH, 0.2 mM NADH; total sodium acetate; apparent.

Substrate in series [2]: CC(=O)O
Briefly: purified protein. The following applies: pH 5.5, 37 °C, CO-driven, ferredoxin, CODH/ACS, S. cerevisiae ADH, 0.2 mM NADH, concentration of protonated acid calculated from total acetate with pKa 4.76, apparent, estimated.

Substrate in series [3]: CC=O
In words: purified protein. In kind it is biochemical, Clostridium autoethanogenum. The following applies: pH 8.0 (50 mM Tris-HCl), 37 °C, 5 mM methyl viologen, anaerobic, enzyme reactivated by preincubation with ferredoxin, apparent.

Substrate in series [4]: CCCC=O
In words: purified protein. The format is biochemical, Clostridium autoethanogenum. As to conditions: pH 8.0 (50 mM Tris-HCl), 37 °C, 5 mM methyl viologen, anaerobic, enzyme reactivated by preincubation with ferredoxin, apparent.

Substrate in series [5]: CCC=O
In words: purified protein. As to conditions: pH 8.0 (50 mM Tris-HCl), 37 °C, 5 mM methyl viologen, anaerobic, enzyme reactivated by preincubation with ferredoxin, apparent. In kind it is biochemical, Clostridium autoethanogenum.

For `CC(=O)O` [acetate], in series [1], the “kM^app” value is listed as “the high kM^app of CaAFOR for acetate”.

B1: CaAFOR (AOR1) (Clostridium autoethanogenum DSM 10061) (protein)
chain: MYGYDGKVLRINLKERTCKSENLDLDKAKKFIGCRGLGVKTLFDEIDPKIDALSPENKFIIVTGPLTGAPVPTSGRFMVVTKAPLTGTIGISNSGGKWGVDLKKAGWDMIIVEDKADSPVYIEIVDDKVEIKDASQLWGKVTSETTKELEKITENKSKVLCIGPAGERLSLMAAVMNDVDRTAARGGVGAVMGSKNLKAITVKGTGKIALADKEKVKKVSVEKITTLKNDPVAGQGMPTYGTAILVNIINENGVHPVKNFQESYTNQADKISGETLTANQLVRKNPCYSCPIGCGRWVRLKDGTECGGPEYETLWCFGSDCGSYDLDAINEANMLCNEYGIDTITCGATIAAAMELYQRGYIKDEEIAGDNLSLKWGDTESMIGWIKRMVYSEGFGAKMTNGSYRLCEGYGAPEYSMTVKKQEIPAYDPRGIQGHGITYAVNNRGGCHIKGYMINPEILGYPEKLDRFALDGKAAYAKLFHDLTAVIDSLGLCIFTTFGLGIQDYVDMYNAVVGESTYDADSLLEAGDRIWTLEKLFNLAAGIDSSQDTLPKRLLEEPIPDGPSKGEVHRLDVLLPEYYSVRGWSKEGIPTEETLKKLGLDEYIGKF
notes: native anaerobic purification from CO-grown cells; full length, no tag; monomer, expected mass 66,335 Da; holds [4Fe-4S] and tungstopterin
Usually Km stands for the concentration of substrate that gives half-maximal velocity. What is called kcat is the maximal rate divided by the concentration of active sites. Take B1: the Km was 1630 µM in series [2], 54.40 ± 12.55 µM in series [3], 53.47 ± 19.45 µM in series [4] and 165.51 ± 50.50 µM in series [5]. The kcat turned out to be 4.42 ± 0.31 s⁻¹ in series [3], 4.27 ± 0.48 s⁻¹ in series [4] and 10.35 ± 1.06 s⁻¹ in series [5].
